Here are results for one substance from paper PMC2390755.

The target of the assay is TAP-tagged ISWI (D. melanogaster) (UniProt Q24368). The assay is described as follows: pull-down; tandem affinity purification of TAP-tagged ISWI from larval nuclear extracts (IPP150 buffer): IgG agarose, TEV cleavage, calmodulin resin, SDS elution; Western blot for ISWI, Sin3A, Rpd3; untagged extracts as control. In general terms: A western blot detects proteins with antibodies after separation by electrophoresis.
UniProt Q24368, sequence (Q24368 whole entry): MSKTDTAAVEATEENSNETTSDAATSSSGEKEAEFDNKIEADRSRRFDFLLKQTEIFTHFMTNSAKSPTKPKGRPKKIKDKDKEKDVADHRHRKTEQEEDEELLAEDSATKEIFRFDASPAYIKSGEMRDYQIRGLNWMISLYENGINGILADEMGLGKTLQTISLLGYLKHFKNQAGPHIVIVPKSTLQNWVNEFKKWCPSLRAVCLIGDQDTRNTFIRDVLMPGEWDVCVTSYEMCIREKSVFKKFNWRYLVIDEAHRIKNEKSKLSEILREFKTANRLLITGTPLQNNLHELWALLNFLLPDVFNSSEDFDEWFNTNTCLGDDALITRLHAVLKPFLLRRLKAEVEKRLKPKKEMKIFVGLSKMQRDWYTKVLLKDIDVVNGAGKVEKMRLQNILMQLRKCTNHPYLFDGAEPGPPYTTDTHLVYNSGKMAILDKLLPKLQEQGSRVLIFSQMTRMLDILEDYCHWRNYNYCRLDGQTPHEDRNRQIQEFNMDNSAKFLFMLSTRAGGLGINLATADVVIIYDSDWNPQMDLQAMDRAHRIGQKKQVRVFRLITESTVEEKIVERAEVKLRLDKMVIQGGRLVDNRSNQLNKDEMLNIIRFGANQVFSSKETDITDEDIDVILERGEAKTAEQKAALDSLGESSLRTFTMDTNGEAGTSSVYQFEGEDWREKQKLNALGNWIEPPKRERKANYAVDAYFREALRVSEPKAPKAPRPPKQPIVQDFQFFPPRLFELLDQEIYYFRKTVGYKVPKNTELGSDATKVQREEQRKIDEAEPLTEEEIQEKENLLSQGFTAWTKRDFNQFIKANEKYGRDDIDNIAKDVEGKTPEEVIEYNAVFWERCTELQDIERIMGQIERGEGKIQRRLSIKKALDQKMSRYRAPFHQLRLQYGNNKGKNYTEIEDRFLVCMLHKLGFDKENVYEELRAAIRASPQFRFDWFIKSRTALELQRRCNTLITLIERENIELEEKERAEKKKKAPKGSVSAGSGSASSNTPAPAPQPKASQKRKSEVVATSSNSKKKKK

For Sin3A (natural protein), the percent of the total protein in larval nuclear extract associated with ISWI (densitometry) was found to be 15%.
